Test results as given in PMC6381275, “Structure and Mechanism of LcpA, a Phosphotransferase That Mediates Glycosylation of a Gram-Positive Bacterial Cell Wall-Anchored Protein” (mBio, 2019).

System: CC(C)=CCC/C(C)=C/CC/C(C)=C/CO[P@@](=O)(O)OP(=O)(O)O
Assay: fluorometric inorganic phosphate release assay (pyrophosphatase)
Type: biochemical, Actinomyces oris
Conditions: 20 mM Tris-HCl pH 8.0, 30°C, 24 h, 3 µM enzyme, 0-150 µM FPP

Work on “LcpA (eLcpA, recombinant extracellular LCP domain) (Actinomyces oris)” yielded a Km of 15.2 ± 3.7 µM.
